Test results from patent publication US20250197484A1 (ECO ANIMAL HEALTH, published 2025).
Read-outs that look alike come from different tables or passages of the source.

Experiments:
[1] = target: T1, Clostridium perfringens NetB toxin (necrotic enteritis B-like toxin) (Clostridium perfringens)
[2] = target: T1, Clostridium perfringens NetB toxin …; test: cell-based or functional assay
[3] = target: T1, Clostridium perfringens NetB toxin …; test: SPR (Biacore 8K+), single cycle kinetics, NetB toxin immobilised, pH 7.4
[4] = target: T1, Clostridium perfringens NetB toxin …; test: cell-based or functional assay; remark: listed apart in the source
[5] = target: T1, Clostridium perfringens NetB toxin …; remark: listed apart in the source

B1: Net_14 (VHH)
VHH: QVQLVESGGGLVQAGGSVRLSCVASGLTFSGYSLGWFRQAPGKEREGVSYISSSGMITDYADSVKGRVTISRDDAKSTMYLQMNSLKPEDTAVYYCAARFPRPRSWLSTDSYNYWGQGAQVTVSS
- EC50 (read off the curve) [1]: ~0.02 µg/mL
- IC50, inhibition of NetB-induced RBC lysis, 0 min incubation with 30 U/ml pepsin [2]: 23 nM
- Kd [3]: 0.095 nM
- koff [3]: 6.32e-05 s⁻¹
- kon [3]: 668000 M⁻¹ s⁻¹
- IC50 of NetB-induced RBC lysis inhibition after incubation in water, Day 0 [4]: 44.2 nM
- IC50 of NetB-induced RBC lysis inhibition after incubation in water, Day 1 [4]: 53 nM
- IC50 of NetB-induced RBC lysis inhibition after incubation in water, Day 4 [4]: 51.1 nM

B2: Net_83 (VHH)
VHH: QVQLVESGGGLVQAGESLRLSCAASGSIRSISFMNWYRQQPGKQRELVAGINQIGNTNYAGSVKGRFTISRDNAKNTVYLQMNSLKPEDTAVYYCNVIVRGTVSPFQFWGQGTQVTVSS
- EC50 (read off the curve) [5]: ~0.03 µg/mL
- IC50, inhibition of NetB-induced RBC lysis, 0 min incubation with 30 U/ml pepsin [2]: 61 nM
- Kd [3]: 0.213 nM
- koff [3]: 0.000248 s⁻¹
- kon [3]: 1.17e+06 M⁻¹ s⁻¹
- IC50 of NetB-induced RBC lysis inhibition after incubation in water, Day 0 [4]: 163 nM
- IC50 of NetB-induced RBC lysis inhibition after incubation in water, Day 1 [4]: 168 nM
- IC50 of NetB-induced RBC lysis inhibition after incubation in water, Day 4 [4]: 245 nM
